Publication doi:10.1101/2021.12.23.474050 (bioRxiv, 2021)

Molecular target: wild-type (WT) RBD of the SARS-CoV-2 spike protein (SARS-CoV-2, UniProt P0DTC2)
Experiment: ITC

B1: LY-CoV555 ScFv (scFv, V domains shown)
VH: QVQLVQSGAEVKKPGSSVKVSCKASGGTFSNYAISWVRQAPGQGLEWMGRIIPILGIANYAQKFQGRVTITADKSTSTAYMELSSLRSEDTAVYYCARGYYEARHYYYYYAMDVWGQGTAVTVSS
VL: not shown
**Q.** For B1, which Kd is on record?
**A.** 3.8 ± 1.9 nM

B2: REGN-10987 ScFv (scFv, V domains shown)
VH: QVQLVESGGGVVQPGRSLRLSCAASGFTFSNYAMYWVRQAPGKGLEWVAVISYDGSNKYYADSVKGRFTISRDNSKNTLYLQMNSLRTEDTAVYYCASGSDYGDYLLVYWGQGTLVTVSS
VL: QSALTQPASVSGSPGQSITISCTGTSSDVGGYNYVSWYQQHPGKAPKLMIYDVSKRPSGVSNRFSGSKSGNTASLTISGLQSEDEADYYCNSLTSISTWVFGGGTKLTVL
**Q.** B2 was tested. Which Kd did it give?
**A.** 34.3 ± 8.1 nM
